Results published in patent publication US20240317834A1, “COMPOSITIONS AND METHODS FOR NEUROLOGICAL DISEASES” (CODA BIOTHERAPEUTICS, INC., priority 2020, published 2024).

Columns and labels:
Lenti-X 293T cells = experiment: YFP fluorescence quenching anion reporter plate reader assay of engineered receptors stimulated with acetylcholine or a non-native ligand; type: cell-based
Outline: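 Lenti-X 293T cells carrying a YFP anion reporter were transiently transfected with channel DNA and assayed the next day in HEPES-buffered ECS at pH 7.2. Ligand (acetylcholine or non-native ligand) was added in NaI-substituted ECS. Percent quench was the mean of the last 10 s relative to the 15 s pre-addition baseline.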

[1] = Sensitivity of parental chimera SEQ ID NO: 33 to ligands relative to wild type α7-nAChR

B1: CODA71: parental chimeric LGIC: human α7-nAChR ligand binding domain with GlyRα1 Cys-loop fused to human GlyRα1 ion pore domain (protein)
chain: MRCSPGGVWLALAASLLHVSLQGEFQRKLYKELVKNYNPLERPVANDSQPLTVYFSLSLLQIMDVDEKNQVLTTNIWLQMSWTDHYLQWNVSEYPGVKTVRFPDGQIWKPDILLYNSADERFDATFHTNVLVNSSGHCQYLPPGIFKSSCPMDLKNFPMDVQTCKLKFGSWSYGGWSLDLQMQEADISGYIPNGEWDLVGIPGKRSERFYECCKEPYPDVTFTVTMRRRMGYYLIQMYIPSLLIVILSWISFWINMDAAPARVGLGITTVLTMTTQSSGSRASLPKVSYVKAIDIWMAVCLLFVFSALLEYAAVNFVSRQHKELLRFRRKRRHHKSPMLNLFQEDEAGEGRFNFSAYGMGPACLQAKDGISVKGANNSNTTNPPPAPSKSPEEMRKLFIQRAKKIDKISRIGFPMAFLIFNMFYWIIYKIVRREDVHNQ
modifications: synthetic sequence of chimeric LGIC
- YFP fluorescence quenching using CNL001 (Lenti-X 293T cells; 1 nM CNL001, first column): 3.727%
- YFP fluorescence quenching using CNL001 (Lenti-X 293T cells; 1 nM CNL001, second column): 20.231%
- YFP fluorescence quenching using TC-5619/Bradanicline (Lenti-X 293T cells; 1 nM brd): 9.41%
- YFP fluorescence quenching using TC-5619/Bradanicline (Lenti-X 293T cells; 3 nM brd): 44.38%
- YFP fluorescence quenching using Varenicline (Lenti-X 293T cells; 3 nM var, first column): −2.36
- YFP fluorescence quenching using Varenicline (Lenti-X 293T cells; 3 nM var, second column): −3.522
- YFP fluorescence quenching using CNL001 (Lenti-X 293T cells; 10 nM CNL001, first column): 81.096%
- YFP fluorescence quenching using CNL001 (Lenti-X 293T cells; 10 nM CNL001, second column): 82.368%
- YFP fluorescence quenching using TC-5619/Bradanicline (Lenti-X 293T cells; 10 nM brd): 76.61%
- YFP fluorescence quenching using TC-5619/Bradanicline (Lenti-X 293T cells; 30 nM brd): 70.23%
- YFP fluorescence quenching using Facinicline (Lenti-X 293T cells; 30 nM fac): 53.42
- YFP fluorescence quenching using Varenicline (Lenti-X 293T cells; 30 nM var, first column): −4.255
- YFP fluorescence quenching using Varenicline (Lenti-X 293T cells; 30 nM var, second column): −3.636
- YFP fluorescence quenching using CNL001 (Lenti-X 293T cells; 50 nM CNL001, first column): 83.62%
- YFP fluorescence quenching using CNL001 (Lenti-X 293T cells; 50 nM CNL001, second column): 84.482%
- YFP fluorescence quenching using ABT-126 (Lenti-X 293T cells; 50 nM abt): −1.98%
- YFP fluorescence quenching using CNL001 (Lenti-X 293T cells; 100 nM CNL001, first column): 84.297%
- YFP fluorescence quenching using CNL001 (Lenti-X 293T cells; 100 nM CNL001, second column): 85.368%
- YFP fluorescence quenching using CNL002 (Lenti-X 293T cells; 100 nM CNL002): 49.61%
- YFP fluorescence quenching using ABT-126 (Lenti-X 293T cells; 100 nM abt): 24.27%
- YFP fluorescence quenching using AZD-0328 (Lenti-X 293T cells; 100 nM azd0328): 73.59%
- YFP fluorescence quenching using TC-5619/Bradanicline (Lenti-X 293T cells; 100 nM brd): 78.62%
- YFP fluorescence quenching using Facinicline (Lenti-X 293T cells; 100 nM fac): 83.6
- YFP fluorescence quenching using ABT-126 (Lenti-X 293T cells; 300 nM abt): 56.8%
- YFP fluorescence quenching using AZD-0328 (Lenti-X 293T cells; 300 nM azd0328): 78.09%
- YFP fluorescence quenching using TC-5619/Bradanicline (Lenti-X 293T cells; 300 nM brd): 75.51%
- YFP fluorescence quenching using Facinicline (Lenti-X 293T cells; 300 nM fac): 77.44
- YFP fluorescence quenching using Varenicline (Lenti-X 293T cells; 300 nM var, first column): 46.195
- YFP fluorescence quenching using Varenicline (Lenti-X 293T cells; 300 nM var, second column): 45.522
- YFP fluorescence quenching using ABT-126 (Lenti-X 293T cells; 500 nM abt): 76.28%
- YFP fluorescence quenching using Varenicline (Lenti-X 293T cells; 500 nM var, first column): 69.253
- YFP fluorescence quenching using Varenicline (Lenti-X 293T cells; 500 nM var, second column): 71.705
- YFP fluorescence quenching using CNL001 (Lenti-X 293T cells; 1 uM CNL001, first column): 85.647%
- YFP fluorescence quenching using CNL001 (Lenti-X 293T cells; 1 uM CNL001, second column): 86.358%
- YFP fluorescence quenching using CNL002 (Lenti-X 293T cells; 1 uM CNL002): 74.15%
- YFP fluorescence quenching using ABT-126 (Lenti-X 293T cells; 1 uM abt): 73.16%
- YFP fluorescence quenching using TC-6987 (Lenti-X 293T cells; 1 uM tc6987): 31.56
- YFP fluorescence quenching using Varenicline (Lenti-X 293T cells; 1 uM var, first column): 79.254
- YFP fluorescence quenching using Varenicline (Lenti-X 293T cells; 1 uM var, second column): 79.244
- YFP fluorescence quenching using ABT-126 (Lenti-X 293T cells; 3 uM abt): 70.98%
- YFP fluorescence quenching using TC-6987 (Lenti-X 293T cells; 3 uM tc6987): 31.82
- YFP fluorescence quenching using TC-6987 (Lenti-X 293T cells; 5 uM tc6987): 30.75
- YFP fluorescence quenching using ABT-126 (Lenti-X 293T cells; 10 uM abt): 72.62%
- YFP fluorescence quenching using TC-6987 (Lenti-X 293T cells; 10 uM tc6987): 56.68
- YFP fluorescence quenching using CNL002 (Lenti-X 293T cells; 30 uM CNL002): 75.21%
- YFP fluorescence quenching using ABT-126 (Lenti-X 293T cells; 30 uM abt): 77.49%
- YFP fluorescence quenching using AZD-0328 (Lenti-X 293T cells; 30 uM azd0328): 79.05%
- YFP fluorescence quenching using Facinicline (Lenti-X 293T cells; 30 uM fac): 79.62
- YFP fluorescence quenching using TC-6987 (Lenti-X 293T cells; 30 uM tc6987): 51.46
- YFP fluorescence quenching using ABT-126 (Lenti-X 293T cells; 50 uM abt): 77.96%
- YFP fluorescence quenching using TC-6987 (Lenti-X 293T cells; 50 uM tc6987): 61.26
- YFP fluorescence quenching using ABT-126 (Lenti-X 293T cells; 100 uM abt): 77.81%
- YFP fluorescence quenching using TC-6987 (Lenti-X 293T cells; 100 uM tc6987): 43.21
- YFP fluorescence quenching using TC-6987 (Lenti-X 293T cells; 300 uM tc6987): 7.79
- YFP fluorescence quenching using TC-6987 (Lenti-X 293T cells; 500 uM tc6987): 51.58
- percent quench of YFP fluorescence, 30 nM TC-6683 (Lenti-X 293T cells; TC-6683 30 nM): −14.43%
- percent quench of YFP fluorescence, 300 nM TC-6683 (Lenti-X 293T cells; TC-6683 300 nM): −13.08%
- percent quench of YFP fluorescence, 3 uM TC-6683 (Lenti-X 293T cells; TC-6683 3 uM): −13.71%
- percent quench of YFP fluorescence, 30 uM TC-6683 (Lenti-X 293T cells; TC-6683 30 uM): −14.02%
- percent quench of YFP fluorescence, 100 uM TC-6683 (Lenti-X 293T cells; TC-6683 100 uM): −8.77%
- percent quench of YFP fluorescence, 10 uM ach (Lenti-X 293T cells; acetylcholine 10 uM): 15.61%
- percent quench of YFP fluorescence, 30 uM ach (Lenti-X 293T cells; acetylcholine 30 uM): 63.31%
- percent quench of YFP fluorescence, 50 uM ach (Lenti-X 293T cells; acetylcholine 50 uM): 73.16%
- percent quench of YFP fluorescence, 100 uM ach (Lenti-X 293T cells; acetylcholine 100 uM): 74.94%
- percent quench of YFP fluorescence, 300 uM ach (Lenti-X 293T cells; acetylcholine 300 uM): 65.94%
- percent quench of YFP fluorescence, 500 uM ach (Lenti-X 293T cells; acetylcholine 500 uM): 62.78%
- percent quench of YFP fluorescence, 1 mM ach (Lenti-X 293T cells; acetylcholine 1 mM): 74.24%
- percent quench of YFP fluorescence, 3 mM ach (Lenti-X 293T cells; acetylcholine 3 mM): 76.27%
- percent quench of YFP fluorescence, 5 mM ach (Lenti-X 293T cells; acetylcholine 5 mM): 77.15%
- percent quench of YFP fluorescence, 10 mM ach (Lenti-X 293T cells; acetylcholine 10 mM): 77.96%
- sensitivity to ABT-126 compared with wild type α7-nAChR ([1]; ligand ABT-126): approximately as sensitive
- fold more sensitive to AZD-0328 than wild type ([1]; ligand AZD-0328): approximately 3 fold
- fold more sensitive to Facinicline/RG3487 than wild type ([1]; ligand Facinicline/RG3487): ~10 fold
- sensitivity to TC-6987 compared with wild type α7-nAChR ([1]; ligand TC-6987): approximately as sensitive
- type of agonist activity of TC-6987 on the receptor ([1]; ligand TC-6987, similar to wild type): partial agonist activity
- sensitivity to acetylcholine compared with wild type α7-nAChR ([1]; ligand acetylcholine): approximately as sensitive
- fold less sensitive to nicotine than wild type ([1]; ligand nicotine): ~2 fold
